Test results reported in IntAct's records for PubMed 29039417.

B1: Protein PTHB1 (Homo sapiens), Q3SYG4 (parent)
chain: MSLFKARDWWSTILGDKEEFDQGCLCLANVDNSGNGQDKIIVGSFMGYLRIFSPHPAKTGDGAQAEDLLLEVDLRDPVLQVEVGKFVSGTEMLHLAVLHSRKLCVYSVSGTLGNVEHGNQCQMKLMYEHNLQRTACNMTYGSFGGVKGRDLICIQSMDGMLMVFEQESYAFGRFLPGFLLPGPLAYSSRTDSFLTVSSCQQVESYKYQVLAFATDADKRQETEQQKLGSGKRLVVDWTLNIGEQALDICIVSFNQSASSVFVLGERNFFCLKDNGQIRFMKKLDWSPSCFLPYCSVSEGTINTLIGNHNNMLHIYQDVTLKWATQLPHIPVAVRVGCLHDLKGVIVTLSDDGHLQCSYLGTDPSLFQAPNVQSRELNYDELDVEMKELQKIIKDVNKSQGVWPMTEREDDLNVSVVVSPNFDSVSQATDVEVGTDLVPSVTVKVTLQNRVILQKAKLSVYVQPPLELTCDQFTFEFMTPDLTRTVSFSVYLKRSYTPSELEGNAVVSYSRPTDRNPDGIPRVIQCKFRLPLKLICLPGQPSKTASHKITIDTNKSPVSLLSLFPGFASQSDDDQVNVMGFHFLGGARITVLASKTSQRYRIQSEQFEDLWLITNELILRLQEYFEKQGVKDFACSFSGSIPLQEYFELIDHHFELRINGEKLEELLSERAVQFRAIQRRLLARFKDKTPAPLQHLDTLLDGTYKQVIALADAVEENQGNLFQSFTRLKSATHLVILLIALWQKLSADQVAILEAAFLPLQEDTQELGWEETVDAAISHLLKTCLSKSSKEQALNLNSQLNIPKDTSQLKKHITLLCDRLSKGGRLCLSTDAAAPQTMVMPGGCTTIPESDLEERSVEQDSTELFTNHRHLTAETPRPEVSPLQGVSE
partner: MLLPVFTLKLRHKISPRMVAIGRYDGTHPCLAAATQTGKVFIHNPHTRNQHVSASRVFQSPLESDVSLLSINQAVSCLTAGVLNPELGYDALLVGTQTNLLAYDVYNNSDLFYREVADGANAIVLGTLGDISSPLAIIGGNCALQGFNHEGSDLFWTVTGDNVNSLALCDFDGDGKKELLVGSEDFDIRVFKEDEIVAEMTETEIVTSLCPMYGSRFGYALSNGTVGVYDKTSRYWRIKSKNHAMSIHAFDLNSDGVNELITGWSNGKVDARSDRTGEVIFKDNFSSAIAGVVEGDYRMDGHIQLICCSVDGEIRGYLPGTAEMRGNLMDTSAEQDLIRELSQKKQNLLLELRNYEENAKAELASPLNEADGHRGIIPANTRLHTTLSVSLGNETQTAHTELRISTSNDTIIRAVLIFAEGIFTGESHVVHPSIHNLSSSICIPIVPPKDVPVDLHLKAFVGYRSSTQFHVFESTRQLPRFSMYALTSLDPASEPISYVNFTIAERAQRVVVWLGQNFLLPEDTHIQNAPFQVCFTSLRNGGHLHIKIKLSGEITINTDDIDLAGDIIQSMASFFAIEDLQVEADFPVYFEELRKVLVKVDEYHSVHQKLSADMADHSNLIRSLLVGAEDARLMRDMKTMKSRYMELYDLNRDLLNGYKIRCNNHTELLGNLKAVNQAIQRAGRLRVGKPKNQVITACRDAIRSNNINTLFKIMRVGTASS

Variants of: B1
Conditions: with bbs2_human BBS2, Q9BXC9

Row | effect of a mutation on the interaction | Variant
1 | with no effect | K542E
2 | with no effect | K542A
3 | with no effect | T543A
4 | with no effect | T543K
5 | with no effect | T543E
6 | with no effect | L533K
7 | with no effect | L533E
8 | with no effect | L533A
9 | with no effect | F566E
10 | with no effect | F566A
11 | with no effect | F566K
12 | with no effect | V577K
13 | with no effect | V577E
14 | with no effect | V577A
15 | with no effect | N553K
16 | with no effect | N553A
17 | with no effect | N553E
18 | disrupting interaction strength | N553T
19 | with no effect | D573A
20 | with no effect | D573K
21 | with no effect | D573E
22 | with no effect | F563K
23 | with no effect | F563E

Row | effect of a mutation on the interaction | Variant
24 | with no effect | F563A
25 | with no effect | P540A
26 | with no effect | P540E
27 | with no effect | P540K
28 | with no effect | I534K
29 | with no effect | I534A
30 | with no effect | I534E
31 | with no effect | Q539K
32 | with no effect | Q539E
33 | with no effect | Q539A
34 | with no effect | A544K
35 | with no effect | A544E
36 | with no effect | V575A
37 | with no effect | V575K
38 | with no effect | V575E
39 | with no effect | D572K
40 | with no effect | D572A
41 | with no effect | D572E
42 | with no effect | S570E
43 | with no effect | S570A
44 | with no effect | S570K
45 | with no effect | L562A
46 | with no effect | L562E

Row | effect of a mutation on the interaction | Variant
47 | with no effect | L562K
48 | with no effect | L559K
49 | with no effect | L559E
50 | disrupting interaction strength | L559R
51 | with no effect | L559A
52 | with no effect | L529E
53 | with no effect | L529K
54 | with no effect | S558A
55 | with no effect | S558K
56 | with no effect | S558E
57 | disrupting interaction strength | S558N
58 | with no effect | I548K
59 | with no effect | I548E
60 | with no effect | I548A
61 | with no effect | G538E
62 | with no effect | G538A
63 | with no effect | G538K
64 | with no effect | R587A
65 | with no effect | R587E
66 | disrupting interaction strength | R587T
67 | with no effect | R587K
68 | with no effect | Q569K
69 | with no effect | Q569E

Row | effect of a mutation on the interaction | Variant
70 | with no effect | Q569A
71 | with no effect | S541A
72 | with no effect | S541K
73 | with no effect | S541E
74 | with no effect | P537E
75 | with no effect | P537A
76 | with no effect | P537K
77 | with no effect | L560E
78 | with no effect | L560A
79 | with no effect | L560K
80 | with no effect | V557K
81 | with no effect | V557A
82 | with no effect | V557E
83 | with no effect | I550E
84 | with no effect | I550K
85 | with no effect | I550A
86 | with no effect | D571E
87 | with no effect | D571K
88 | with no effect | D571A
89 | with no effect | S545A
90 | with no effect | S545K
91 | with no effect | S545E
92 | with no effect | K554E

Row | effect of a mutation on the interaction | Variant
93 | disrupting interaction strength | K554S
94 | with no effect | K554A
95 | with no effect | K547E
96 | with no effect | K547A
97 | with no effect | T552E
98 | with no effect | T552K
99 | with no effect | T552A
100 | with no effect | S561K
101 | with no effect | S561E
102 | with no effect | S561A
103 | with no effect | L531E
104 | with no effect | L531K
105 | with no effect | L531A
106 | with no effect | G565A
107 | with no effect | G565K
108 | with no effect | G565E
109 | disrupting interaction strength | G565R
110 | with no effect | M578A
111 | disrupting interaction strength | M578K
112 | with no effect | M578E
113 | with no effect | P530E
114 | with no effect | P530A
115 | disrupting interaction strength | P530L

Row | effect of a mutation on the interaction | Variant
116 | with no effect | P530K
117 | with no effect | K532E
118 | with no effect | K532A
119 | with no effect | A567K
120 | with no effect | A567E
121 | with no effect | N576K
122 | with no effect | N576A
123 | with no effect | N576E
124 | with no effect | C535E
125 | with no effect | C535A
126 | with no effect | C535K
127 | with no effect | L536K
128 | with no effect | L536E
129 | with no effect | L536A
130 | with no effect | G585K
131 | disrupting interaction strength | G585R
132 | with no effect | G585E
133 | with no effect | G585A
134 | with no effect | A586K
135 | with no effect | A586E
136 | with no effect | S555A
137 | with no effect | S555E
138 | with no effect | S555K

Row | effect of a mutation on the interaction | Variant
139 | with no effect | T549E
140 | with no effect | T549K
141 | with no effect | T549A
142 | with no effect | F580A
143 | with no effect | F580K
144 | with no effect | F580E
145 | with no effect | D551K
146 | with no effect | D551E
147 | with no effect | D551A
148 | with no effect | F582K
149 | with no effect | F582E
150 | with no effect | F582A
151 | with no effect | H546A
152 | with no effect | H546E
153 | with no effect | H546K
154 | with no effect | Q574K
155 | with no effect | Q574A
156 | with no effect | Q574E
157 | disrupting interaction strength | Q574L
158 | with no effect | P564A
159 | with no effect | P564K
160 | with no effect | P564E
161 | with no effect | G579K

Row | effect of a mutation on the interaction | Variant
162 | with no effect | G579A
163 | with no effect | G579E
164 | with no effect | P556E
165 | with no effect | P556A
166 | disrupting interaction strength | P556Q
167 | with no effect | P556K
168 | with no effect | G584K
169 | with no effect | G584A
170 | with no effect | G584E
171 | with no effect | L583A
172 | with no effect | L583K
173 | with no effect | L583E
174 | disrupting interaction strength | H581P
175 | with no effect | H581K
176 | with no effect | H581A
177 | with no effect | H581E
178 | disrupting interaction strength | H581Y
179 | with no effect | S568K
180 | with no effect | S568A
181 | with no effect | S568E
